The text below walks through data of publication PMC4937518.

The target in this experiment is GAPDH (human (endogenous in U2OS)) (UniProt P04406). Nature of the experiment: cross-linking; titration of formaldehyde on intact adherent U2OS cells, quenched with Tris, extracted in SDS denaturing buffer, immunoblot of total cell lysates; 6% formaldehyde optimal.

GAPDH, P04406 1-335 (enzyme; other documents disagree on this pair), sequence (P04406 whole entry): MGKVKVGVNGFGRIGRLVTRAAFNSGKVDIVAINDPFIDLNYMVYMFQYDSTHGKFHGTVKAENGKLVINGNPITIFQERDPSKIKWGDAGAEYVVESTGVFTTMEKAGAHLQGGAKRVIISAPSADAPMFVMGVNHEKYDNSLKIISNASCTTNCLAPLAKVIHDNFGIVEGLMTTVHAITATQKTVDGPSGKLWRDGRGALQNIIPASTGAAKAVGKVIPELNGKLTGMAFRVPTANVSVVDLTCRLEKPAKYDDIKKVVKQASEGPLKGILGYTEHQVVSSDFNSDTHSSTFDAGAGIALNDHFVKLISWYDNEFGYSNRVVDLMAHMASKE

In turn, “GAPDH, P04406 1-335 (enzyme; other documents disagree on this pair)” yielded a stoichiometry N of 4.
